Data set [1] deals with the molecule itself. As to the kind of experiment: fluorescence correlation spectroscopy (FCS), particle brightness (counts per particle) analysis; FCS-microwell system: single transfected U2OS cell lysed in a 113 pL PDMS microwell; absence of Dex; lysis buffer with 0.1% SDS and Benzonase; bimolecular reaction model fitted in the 0-50 nM range; dimer to monomers.
Data set [2] deals with the molecule itself. As to the kind of experiment: fluorescence correlation spectroscopy (FCS), particle brightness (counts per particle) analysis; FCS-microwell system: single transfected U2OS cell, 500 nM Dex at 37 °C for 20 min, then lysed in a 113 pL PDMS microwell; lysis buffer with 0.1% SDS and Benzonase; bimolecular reaction model fitted in the 0-50 nM range; dimer to monomers.

Kd data for two proteins are collected here from publication PMC5945783, “Relationship Between Homodimeric Glucocorticoid Receptor and Transcriptional Regulation Assessed via an In Vitro Fluorescence Correlation Spectroscopy-Microwell System” (Scientific Reports, 2018).

Positions count from the first letter of the chain named. Names and notes keep the numbering of the source.

As usually defined, the Kd is the free concentration of one partner at which half of the binding sites on the other are occupied at equilibrium, for simple one-to-one binding. Read a high Kd as lower affinity.

B1: EGFP-fused human glucocorticoid receptor α C421G mutant (natural protein, UniProt P04150 1-777, looked up)
chain: MDSKESLTPGREENPSSVLAQERGDVMDFYKTLRGGATVKVSASSPSLAVASQSDSKQRRLLVDFPKGSVSNAQQPDLSKAVSLSMGLYMGETETKVMGNDLGFPQQGQISLSSGETDLKLLEESIANLNRSTSVPENPKSSASTAVSAAPTEKEFPKTHSDVSSEQQHLKGQTGTNGGNVKLYTTDQSTFDILQDLEFSSGSPGKETNESPWRSDLLIDENCLLSPLAGEDDSFLLEGNSNEDCKPLILPDTKPKIKDNGDLVLSSPSNVTLPQVKTEKEDFIELCTPGVIKQEKLGTVYCQASFPGANIIGNKMSAISVHGVSTSGGQMYHYDMNTASLSQQQDQKPIFNVIPPIPVGSENWNRCQGSGDDNLTSLGTLNFPGRTVFSNGYSSPSMRPDVSSPPSSSSTATTGPPPKLGLVCSDEASGCHYGVLTCGSCKVFFKRAVEGQHNYLCAGRNDCIIDKIRRKNCPACRYRKCLQAGMNLEARKTKKKIKGIQQATTGVSQETSENPGNKTIVPATLPQLTPTLVSLLEVIEPEVLYAGYDSSVPDSTWRIMTTLNMLGGRQVIAAVKWAKAIPGFRNLHLDDQMTLLQYSWMFLMAFALGWRSYRQSSANLLCFAPDLIINEQRMTLPCMYDQCKHMLYVSSELHRLQVSYEEYLCMKTLLLLSSVPKDGLKSQELFDEIRMTYIKELGKAIVKREGNSSQNWQRFYQLTKLLDSMHEVVENLLNYCFQTFLDKTMSIEFPEMLAEIITNQIPKYSNGNIKKLLFHQK
notes: glucocorticoid receptor α, human, with C421G; also called EGFP-GR/C421G; GR/C421G; source: U2OS, transfected (ViaFect), in single-cell lysate
For the protein B1, the Kd amounted to 0.4 µM in data set [1] and 0.22 µM in data set [2].

B2: EGFP-fused human glucocorticoid receptor α A458T mutant (natural protein, UniProt P04150 1-777, looked up)
chain: B1 chain with G421C, A458T
notes: glucocorticoid receptor α, human, with A458T; also called EGFP-GR/A458T; GR/A458T; source: U2OS, transfected (ViaFect), in single-cell lysate
Regarding B2, the values for the dissociation constant (Kd) in data set [1] and in data set [2] were 0.39 µM and 0.37 µM, respectively.
